Entries after “also recorded” stand apart in the source; their conditions may differ.
System: glycosylated synapsin I
Assay: Lectin affinity chromatography with UEAI
Assay type: binding, rat
Conditions: olfactory bulb lysate (500 μg), Western blotting
Method: Lectin Affinity Chromatography with UEAI.
UEAI lectin conjugated to agarose (Vector Laboratories) or control protein A conjugated to agarose (Vector Laboratories) was packed into a minicolumn (50 μL bed volume; Bio-Rad), and the columns were run in parallel. The resin was equilibrated with 10 column volumes of lectin binding buffer (100 mM Tris pH 7.5, 150 mM NaCl, 1 mM CaCl2, 1 mM MgCl2, 0.5% NP-40, and 0.2% sodium deoxycholate supplemented with EDTA-free Complete™ protease inhibitors). Olfactory bulb tissue from P3 rat pups was lysed in lectin binding buffer by sonication on ice. The lysate was clarified by centrifugation at 12000×g for 10 min, and the total protein concentration was determined using the BCA protein assay (Pierce). Lysate (500 μg) was bound batch-wise with gentle end-over-end mixing at rt for 4 h. The agarose was then allowed to settle, and the flow-through was passed over the column three additional times. The columns were washed with 40 column volumes of lectin binding buffer, followed by 10 column volumes of lectin binding buffer lacking detergent. […] Following concentration, samples were boiled in 1× sample buffer (35 μL of 200 mM Tris pH 6.8, 400 mM DTT, 8% SDS, 0.2% bromophenol blue, and 40% glycerol) and analyzed by SDS-PAGE and western blotting as described above. Synapsin I was detected using mouse anti-synapsin I ascites (Synaptic Systems) at 0.1 μg/mL.

B1: UEAI: lectin conjugated to agarose used for affinity chromatography (protein)
chain: SDDLSFKFKNFSQNGKDLSFQGDASVIETGVLQLNKVGNNLPDETGGIARYIAPIHIWNCNTGEVASFITSFSFFMETSANPKAATDGLTFFLAPPDSPLRRAGGYFGLFEDTKDNDSSYQTVAVEFDTIGSPVNFDDPGFPHIGIDVNRVKSINAERWNKRYGLNNVANVEIIYEASSKTLTASLTYPSDQTSISVTSIVDLKEILPEWVSVGFSGGTYIGRQATHEVLNWYFTSNLINTNS
  capture and detection of glycosylated synapsin I: failed to pull-down and detect glycosylated synapsin I; also recorded: failed to capture and detect glycosylated synapsin I
